Experimental data as given in paper PMC5390017.

Columns and labels:
[1] = target: tau phosphopeptide of the C-terminal domain phosphorylated at S422 (cognate peptide of CBTAU-22.1) (human); assay: ITC; MicroCal Auto iTC200, in solution; peptide ~40 µM, mAb 200 µM, 20 steps of 2 µl; fitted to a single set of sites, mAb:tau peptide = 1:2
[2] = target: tau phosphopeptide 194-212 phosphorylated at S202 and T205 (human) (UniProt P10636); assay: as above

Sequence of tau phosphopeptide of the C-terminal domain phosphorylated at S422 (cognate peptide of CBTAU-22.1) (human) (P10636 721-746): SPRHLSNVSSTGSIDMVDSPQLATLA

B1: CBTAU-22.1 (human IgG1) (antibody, V domains shown)
VH: QVQLVQSGAEVKKPGAPVKVSCETSGYRFSDYNVHWVRQAPGQGPEWIGRISPNSGGTKYAQKFQGRVTMTRDMSMNTAYMELSGLRSDDTAVYYCVRGHCDGTTCSRAYWGQGTLVTVSS
VL: DVVMTQSPLSLPVTPGEPASISCRSSQSLLHRSGHKYLHWYLQRPGQSPQVLIYLGSNRASGVPDRFSGSGSGTDFTLKISRVEAEDVGLYYCMQTLQTPWTFGQGTKVEIK
Binder B1 has a Kd [1] of 32.7 µM.

B2: CBTAU-7.1 (human IgG1) (antibody, V domains shown)
VH: QVQLVESGGGLVQPGGSLRLSCAASGFTFSSYWMHWVRQAPGKGLVWVSRINSDGSDTNYADSVKGRFTFSRDNAKNTLYLQMTSLRAEDTAIYYCTRGRSYGFFDYWGQGALVTVSS
VL: DIVMTQSPDTLSLSPGERATLSCRASQIISSNYLAWYQQQPGQAPRLLIYGASSRATGIPDRFSGSGSATDFTLTISRLEPEDFAVYYCQQYGTSPRTFGQGTKLEIK
Work on B2 yielded a Kd [2] of 5.8 µM.
